Drawing on patent US20240076389A1 (NATIONAL RESEARCH COUNCIL OF CANADA, published 2024), this text covers Kd for 1 molecule.

In this experiment the target is T1, human AXL expressed on the cell surface of tumor cell lines (human, UniProt P30530 26-894).
T1 construct: whole, on cells; also called cell surface-expressed AXL; cell-based AXL
T1 sequence (looked up): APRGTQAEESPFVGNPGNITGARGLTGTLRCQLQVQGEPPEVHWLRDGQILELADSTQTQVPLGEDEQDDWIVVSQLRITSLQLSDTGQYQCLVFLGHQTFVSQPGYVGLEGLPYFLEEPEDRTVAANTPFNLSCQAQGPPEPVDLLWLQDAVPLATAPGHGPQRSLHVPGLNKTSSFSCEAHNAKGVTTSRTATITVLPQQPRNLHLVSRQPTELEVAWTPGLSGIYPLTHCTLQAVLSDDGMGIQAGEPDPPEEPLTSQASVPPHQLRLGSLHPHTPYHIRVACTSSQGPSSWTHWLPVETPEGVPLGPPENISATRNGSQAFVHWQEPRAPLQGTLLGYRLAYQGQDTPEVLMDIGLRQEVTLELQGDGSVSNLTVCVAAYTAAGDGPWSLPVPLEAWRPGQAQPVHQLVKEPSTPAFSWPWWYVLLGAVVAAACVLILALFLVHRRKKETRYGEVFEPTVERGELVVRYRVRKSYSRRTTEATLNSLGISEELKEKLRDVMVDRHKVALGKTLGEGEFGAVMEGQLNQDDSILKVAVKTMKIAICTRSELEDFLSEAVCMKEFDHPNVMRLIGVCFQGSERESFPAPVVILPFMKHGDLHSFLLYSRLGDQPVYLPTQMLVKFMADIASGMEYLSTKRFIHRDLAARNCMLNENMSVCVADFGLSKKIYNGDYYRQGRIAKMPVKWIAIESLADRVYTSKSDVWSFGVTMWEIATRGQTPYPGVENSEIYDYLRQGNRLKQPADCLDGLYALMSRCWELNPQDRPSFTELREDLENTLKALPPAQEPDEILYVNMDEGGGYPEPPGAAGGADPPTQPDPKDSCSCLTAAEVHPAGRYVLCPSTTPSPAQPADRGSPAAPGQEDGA
As to the kind of experiment: FACS on NCI-H292 cells, apparent Kd, human Fc format. As to the method: FACS binding assay. Adherent cells were dissociated with non-enzymatic Sigma Cell Dissociation Solution (Cat. No. C5789). Cells suspensions were added to polypropylene, V-bottom 96-well plates and incubated for 2 hours on ice with primary antibodies at concentrations ranging from 100 nM to 0.001 nM or at a single dose of 100 nM (for the non-specific control). After incubation and washes, cells were incubated with fluorescently labeled secondary antibody (Alexa Fluor® 488 anti-human IgG from Jackson Cat. No 709-546-098) for 1 hour on ice, then washed. Cell viability was determined using Fixable viability dye 450 (20 min on ice). Stained cells were fixed in 1% formaldehyde at 4° C. and stored at 4° C. until acquisition which was performed the next day.
Binding of recombinant chimeric Abs to three cell lines was assessed by FACS as described above. The apparent Bmax and Kd determination is shown below in Table 14.

B1: NRC-sdAb001-Fc (VHH-human IgG1 Fc fusion) (Fc fusion)
chain: QVKLEESGGGLVQAGGSLRLSCTASASISSFDIMGWYRQAPGKQRELVAAITTLDIANYRDSVKGRFTISRDNAKNTVYLQMDSLKPEDTARYHCAAFQSDQNYWGQGTQVTVSS
notes: VHH fused N-terminally to human IgG1 Fc, made in HEK293 cells; also called NRC-sdAb0001-Fc; NRC-sdAb001-hIgG1; not shown: human IgG1 Fc
As for B1, the Kd amounted to 0.105 nM.
